Data: patent US9156883B2, “Binding molecules for human factor VIII and factor VIII-like proteins” (DYAX CORP., priority 1999, dated 2015)
Positions of bridges follow the written chain, without caps; N, C: chain ends. No end group written: not given here. *: point of attachment. NHNH2 = NN*

Experiments:
[1] = biological target: T1, factor VIII-like polypeptide (REFACTO®) (Homo sapiens, UniProt P00451); experiment: Affinity chromatography capture and elution of REFACTO® on immobilized peptide columns; type: binding; conditions: bound material eluted in the presence of ethylene glycol
T1 construct: amino acids 1-743 and 1638 through 2332 of human factor VIII; purchased Genetics Institute, Inc. (Cambridge, Mass.)
T1 sequence (P00451 20-762): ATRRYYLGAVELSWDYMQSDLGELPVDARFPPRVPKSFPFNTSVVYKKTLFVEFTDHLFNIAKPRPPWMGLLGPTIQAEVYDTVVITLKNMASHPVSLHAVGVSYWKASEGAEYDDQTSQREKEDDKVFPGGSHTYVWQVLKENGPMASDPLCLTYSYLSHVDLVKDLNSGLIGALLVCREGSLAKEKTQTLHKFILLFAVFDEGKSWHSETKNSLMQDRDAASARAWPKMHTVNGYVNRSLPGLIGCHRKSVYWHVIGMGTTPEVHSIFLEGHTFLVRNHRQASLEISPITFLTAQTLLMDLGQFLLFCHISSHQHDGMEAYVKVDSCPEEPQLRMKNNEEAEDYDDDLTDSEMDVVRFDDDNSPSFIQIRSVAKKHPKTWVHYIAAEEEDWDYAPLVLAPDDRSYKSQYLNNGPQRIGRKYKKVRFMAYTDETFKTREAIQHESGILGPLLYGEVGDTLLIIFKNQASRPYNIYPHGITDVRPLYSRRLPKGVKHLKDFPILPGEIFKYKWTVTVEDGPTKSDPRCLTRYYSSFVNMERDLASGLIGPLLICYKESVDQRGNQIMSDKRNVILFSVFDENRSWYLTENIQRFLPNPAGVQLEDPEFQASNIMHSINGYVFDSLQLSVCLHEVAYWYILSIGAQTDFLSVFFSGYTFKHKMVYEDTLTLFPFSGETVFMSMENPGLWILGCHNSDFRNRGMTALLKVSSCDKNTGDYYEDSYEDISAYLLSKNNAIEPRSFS
T1 sequence (P00451 1657-2351): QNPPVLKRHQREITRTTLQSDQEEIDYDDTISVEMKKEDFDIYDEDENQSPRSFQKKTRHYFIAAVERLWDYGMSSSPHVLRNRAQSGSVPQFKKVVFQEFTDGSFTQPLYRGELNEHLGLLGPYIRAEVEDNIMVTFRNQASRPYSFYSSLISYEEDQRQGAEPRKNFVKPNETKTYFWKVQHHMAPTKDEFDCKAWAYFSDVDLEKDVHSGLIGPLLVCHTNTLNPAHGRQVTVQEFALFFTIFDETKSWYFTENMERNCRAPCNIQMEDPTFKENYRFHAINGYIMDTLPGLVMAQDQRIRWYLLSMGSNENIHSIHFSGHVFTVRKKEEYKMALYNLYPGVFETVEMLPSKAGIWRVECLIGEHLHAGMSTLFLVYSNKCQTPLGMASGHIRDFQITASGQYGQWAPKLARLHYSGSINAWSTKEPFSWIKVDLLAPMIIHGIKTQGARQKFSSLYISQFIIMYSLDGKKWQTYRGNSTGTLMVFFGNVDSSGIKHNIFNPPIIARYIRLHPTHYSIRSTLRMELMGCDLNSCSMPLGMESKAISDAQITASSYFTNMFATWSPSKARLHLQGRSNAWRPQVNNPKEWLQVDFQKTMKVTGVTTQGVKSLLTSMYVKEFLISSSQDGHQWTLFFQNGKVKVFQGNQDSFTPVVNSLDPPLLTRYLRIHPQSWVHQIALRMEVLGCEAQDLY
Description: The candidate ligands were immobilized onto a formyl-substituted ethylene glycol-methacrylate chromatographic resin (Toyopearl Formyl 650-M, pore size of ˜1000 Å; TosoHaas, Montgomeryville, Pa.). The hydrazide-containing peptides were immobilized by facilitating hydrazone bond formation, the GI-1 and -2 peptides were immobilized via reductive amination using NaCNBH3. The amount of polypeptide immobilized on the solid support was determined by quantifying the amount of free polypeptide remaining in solution. The amount of ligand immobilized per ml of resin was in the range of 0.7-1.5 μmol for the hydrazine-immobilized peptides.
The nine peptides were evaluated by affinity chromatography for their ability to capture the REFACTO® described in Example I, under specific binding and release conditions.
The factor VIII-like polypeptide (REFACTO®) was diluted in SP Buffer to a concentration of 150 μg/ml. The affinity resins (˜350 μl) were each packed into glass columns, and approximately 150 μg of the factor VIII target was applied to the prepared affinity columns at a flow rate of 200 μl/minute (linear velocity of 170 cm/hour). […] Fractions were collected and the mass and activity of recovered factor VIII-like polypeptide was determined by reversed-phase HPLC and by enzymatic assay.
For the mass determination, a standard curve with REFACTO® (0-200 μg) was generated and the amount present in each fraction was calculated according to techniques well known in the art. Reversed-phase HPLC in the presence of 20 mM EDTA was used to disrupt the REFACTO® molecule into its component subunits, which were eluted with a gradient of acetonitrile/0.01% TFA. The activity assay was a Factor IX-, X-based assay. The results for each affinity resin are set forth below (Table 6).

REFACTO® = biological target: T2, REFACTO® (Homo sapiens, UniProt P00451); experiment: Comparative batch binding and elution of REFACTO® with regenerated immobilized ligands; conditions: target REFACTO® 100 U/ml in modified Buffer 1
T2 construct: amino acids 1-743 and 1638 through 2332 of human factor VIII; purchased Genetics Institute, Inc. (Cambridge, Mass.)
T2 sequence (P00451 20-762): T1 sequence (P00451 20-762)
T2 sequence (P00451 1657-2351): T1 sequence (P00451 1657-2351)
Text: A commercial ELISA kit (IMUBIND fVIII ELISA kit, Product #884, American, Inc., Greenwich, Conn.) developed to detect factor VIII was used according to the manufacturer's specifications in order to detect both the REFACTO® and the nhfVIII targets. The kit employs a sandwich ELISA assay in which the target is captured by an immobilized monoclonal antibody and the captured target is detected with a second monoclonal antibody-horseradish peroxidase (HRP) conjugate. Addition of the peroxidase substrate and its subsequent reaction with the HRP produces a blue color (detected at 630 nm) which changes to yellow (detected at 450 nm) on addition of the 0.5N sulfuric acid stop solution. Color response is calibrated with factor VIII standards provided by the manufacturer.
Following the pH 2 washes, the beads were washed once in PBS containing 0.05% azide and stored at 4° C.
A sample of nhfVIII was diluted to a final concentration of 100 U/ml by addition of 2.32 ml H2O, 180 μl 1M NH4OAc, pH 6.3 (to 72 mM), and 1 μl Tween 80 (to 0.04%). REFACTO® stock solution was diluted to 100 U/ml in a modified Buffer 1, in which the NaCl concentration was reduced from […] to 330 mM.
Immobilized peptides were tested for binding to nhFVIII in comparison with REFACTO®. […] Next, nhfVIII and REFACTO® solutions were mixed with regenerated affinity beads bearing the CS-454, CS-456, and CS-458 ligands in a comparative batch purification procedure.

| Substance | capture of the factor VIII target by the affinity resin (in words) [1] | % of Total Recovered in: Eluate (REFACTO®) [%] | % of Total Recovered in: Unbound (REFACTO®) [%] | % of Total Recovered in: Wash (REFACTO®) [%] |
| --- | --- | --- | --- | --- |
| AEGTGDHLCGAWFRPCDADPGPEGGGS-NHNH2 (disulfide 9-16 (inferred)) [CS-454] | captured virtually all of the factor VIII target applied | – | – | – |
| AEGTGDFGCSWLFPCPFDPGPEGGGS-NHNH2 (disulfide 9-15 (inferred)) [CS-456] | captured virtually all of the factor VIII target applied | – | – | – |
| AEGTGDFCWVFAFDHCHDPGPEGGGS-NHNH2 (disulfide 8-16 (inferred)) [CS-458] | – | 27 | 59 | 14 |
